We go through 1 substance from patent US20260070961A1.

Assay [1] addresses DENV-3 VLP (Dengue virus serotype 3). As to the kind of experiment: BLI (Octet-HTX), IgG captured on Protein A biosensor, 5 ug/mL DENV-VLP, 1:1 model. Background: In BLI a coated tip is dipped into the sample, and binding shifts an interference pattern.
The target is the same in assay [2]. As to the kind of experiment: BLI (Octet-HTX), IgG captured on Protein A biosensor, 5 ug/mL DENV-VLP.

One may read the koff as a measure of how fast the partners let go of each other. Take 4G2 (antibody): in assay [1], the koff came to 0.000345 s⁻¹. This substance showed a response in assay [2] of 0.316.
